Measurements taken from US20200131274A1 (CRESCENDO BIOLOGICS, published 2020).
Positions count from the first letter of the chain named. Numbers in names are those of the source. One block for each binder: values may come before it.

Experiments:
[1] = target: T1, cynomolgus PSMA, full-length, on CHO cells (cynomolgus, UniProt A0A2K5VNZ0 1-750); assay: cell-based or functional assay
[2] = target: T2, recombinant human PSMA (R&D, cat. no. 4234-ZN) (human, UniProt Q04609 44-750); assay: Octet RED384 BLI, PSMA on sensor, VH purified from periplasmic extracts
T2 construct: Bought protein; also called rhPSMA; Recombinant PMSA
T2 sequence (Q04609 44-750 limits assumed): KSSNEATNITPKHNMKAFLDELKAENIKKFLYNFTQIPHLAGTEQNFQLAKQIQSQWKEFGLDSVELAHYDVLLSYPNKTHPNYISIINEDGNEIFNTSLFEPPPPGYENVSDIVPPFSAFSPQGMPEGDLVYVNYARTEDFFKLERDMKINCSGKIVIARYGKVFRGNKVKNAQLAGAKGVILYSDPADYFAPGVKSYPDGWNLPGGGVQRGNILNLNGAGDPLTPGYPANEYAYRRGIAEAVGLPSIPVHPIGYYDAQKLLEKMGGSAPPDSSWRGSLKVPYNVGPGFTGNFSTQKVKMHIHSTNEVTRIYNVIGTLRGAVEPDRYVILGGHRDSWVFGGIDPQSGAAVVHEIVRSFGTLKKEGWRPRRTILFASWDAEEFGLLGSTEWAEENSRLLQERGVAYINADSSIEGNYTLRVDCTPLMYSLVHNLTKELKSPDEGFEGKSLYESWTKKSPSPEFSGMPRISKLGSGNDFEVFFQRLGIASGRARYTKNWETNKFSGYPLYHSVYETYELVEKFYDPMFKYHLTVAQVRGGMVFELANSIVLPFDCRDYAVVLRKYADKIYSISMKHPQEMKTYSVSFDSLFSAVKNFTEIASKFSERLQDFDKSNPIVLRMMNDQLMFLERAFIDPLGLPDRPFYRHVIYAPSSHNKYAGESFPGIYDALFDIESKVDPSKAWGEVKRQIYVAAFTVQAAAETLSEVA

[3] = target: T1, cynomolgus PSMA, full-length, on CHO …; assay: FMAT Mirrorball direct cell binding, purified His-tagged VH titrated on CHO cells expressing cynomolgus PSMA, FL2 median binding signal [panel cynoPSMA-CHO binding]
[4] = target: T3, human prostate specific membrane antigen (PSMA), full-length, on cells (human, UniProt Q04609 1-750); assay: cell-based or functional assay
T3 sequence (Q04609 whole entry): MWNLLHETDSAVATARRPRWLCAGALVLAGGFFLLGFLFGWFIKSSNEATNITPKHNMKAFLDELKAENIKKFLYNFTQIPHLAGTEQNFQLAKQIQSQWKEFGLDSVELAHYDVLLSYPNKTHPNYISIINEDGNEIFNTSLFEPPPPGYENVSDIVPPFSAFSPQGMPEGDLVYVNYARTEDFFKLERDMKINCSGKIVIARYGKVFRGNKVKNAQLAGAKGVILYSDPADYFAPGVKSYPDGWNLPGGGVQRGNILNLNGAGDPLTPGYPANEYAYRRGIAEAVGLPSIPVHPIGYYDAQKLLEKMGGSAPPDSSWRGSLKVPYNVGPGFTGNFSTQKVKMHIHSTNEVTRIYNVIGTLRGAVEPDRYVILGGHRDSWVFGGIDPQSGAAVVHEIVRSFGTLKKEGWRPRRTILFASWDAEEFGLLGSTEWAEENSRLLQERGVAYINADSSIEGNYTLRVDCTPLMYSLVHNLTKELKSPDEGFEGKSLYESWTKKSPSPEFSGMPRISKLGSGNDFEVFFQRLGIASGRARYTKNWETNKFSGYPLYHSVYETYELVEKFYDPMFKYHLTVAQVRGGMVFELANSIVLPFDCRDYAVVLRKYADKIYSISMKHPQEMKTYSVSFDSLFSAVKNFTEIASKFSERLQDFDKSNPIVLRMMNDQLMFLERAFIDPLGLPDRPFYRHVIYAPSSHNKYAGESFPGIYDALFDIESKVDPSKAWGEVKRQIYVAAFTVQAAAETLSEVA

[5] = target: T3, human prostate specific membrane …; assay: cell-based or functional assay; remark: listed apart in the source
[6] = target: T1, cynomolgus PSMA, full-length, on CHO …; assay: cell-based or functional assay; remark: listed apart in the source
[7] = target: T3, human prostate specific membrane …; assay: FMAT direct cell binding, LNCap cells
[8] = target: T3, human prostate specific membrane …; assay: FMAT direct cell binding, DU145 PSMA cells
[9] = target: T1, cynomolgus PSMA, full-length, on CHO …; assay: FMAT direct cell binding, CHO cyno PSMA cells
[10] = target: T3, human prostate specific membrane …; assay: FMAT direct cell binding, CHO human PSMA cells
[11] = target: T2, recombinant human PSMA (R&D, cat. no. …); assay: Octet RED384 BLI, PSMA on sensor, VH series from 0.375 ug/ml
[12] = target: T3, human prostate specific membrane …; assay: FMAT cell binding, huPSMA CHO 1A10 cells, after 1 day in human serum at 37 C
[13] = target: T3, human prostate specific membrane …; assay: FMAT cell binding, huPSMA CHO 1A10 cells, after 0 days in human serum at 37 C
[14] = target: T3, human prostate specific membrane …; assay: FMAT cell binding, huPSMA CHO 1A10 cells, after 4 days in human serum at 37 C
[15] = target: T3, human prostate specific membrane …; assay: FMAT cell binding, huPSMA CHO 1A10 cells, after 7 days in human serum at 37 C
[16] = target: T3, human prostate specific membrane …; assay: FMAT direct cell binding, human PSMA-CHO cells
[17] = target: T3, human prostate specific membrane …; assay: FMAT cell binding, huPSMA CHO cells, after 1 day in human serum at 37 C
[18] = target: T3, human prostate specific membrane …; assay: FMAT cell binding, huPSMA CHO cells, after 0 days in human serum at 37 C
[19] = target: T3, human prostate specific membrane …; assay: FMAT cell binding, huPSMA CHO cells, after 4 days in human serum at 37 C
[20] = target: T3, human prostate specific membrane …; assay: FMAT cell binding, huPSMA CHO cells, after 7 days in human serum at 37 C
[21] = target: T2, recombinant human PSMA (R&D, cat. no. …); assay: Octet RED384 BLI, PSMA on sensor, VH series from 0.375 ug/ml; remark: listed apart in the source
[22] = target: T3, human prostate specific membrane …; assay: FMAT cell binding, huPSMA CHO 1A10 cells, after 1 day in human serum at 37 C; remark: listed apart in the source
[23] = target: T3, human prostate specific membrane …; assay: FMAT cell binding, huPSMA CHO 1A10 cells, after 0 days in human serum at 37 C; remark: listed apart in the source
[24] = target: T3, human prostate specific membrane …; assay: FMAT cell binding, huPSMA CHO 1A10 cells, after 4 days in human serum at 37 C; remark: listed apart in the source
[25] = target: T3, human prostate specific membrane …; assay: FMAT cell binding, huPSMA CHO 1A10 cells, after 7 days in human serum at 37 C; remark: listed apart in the source
[26] = target: T2, recombinant human PSMA (R&D, cat. no. …); assay: Octet RED384 BLI, PSMA amine-coupled to sensor, 1:1 model
[27] = target: T3, human prostate specific membrane …; assay: FMAT Mirrorball direct cell binding, purified His-tagged VH titrated on LNCap cells, FL2 median binding signal [panel LNCap cell binding]
[28] = target: T3, human prostate specific membrane …; assay: FMAT Mirrorball direct cell binding, purified His-tagged VH titrated on CHO cells expressing human PSMA, FL2 median binding signal [panel huPSMA-CHO binding]

- EC50 (read off the curve) [3]: ~1 nM
B2: 2.10 (VHH)
VHH: EVQLVESGGGVVQPGRSLRLSCAASGFTFSGYGMHWVRQAPGKGLEWVAYISYDGSNRYYADSVKGRFTISRDNSKKTLSLQMNSLRAEDTAVYYCAKDPAWGLRLGESSSYDFDIWGQGTMVTVSS
notes: On the sheet it is the filled up triangle; also called single VH domain antibody 2.10

- pHrodo Green internalization assay, human PSMA Average EC50 (M) [4]: 6.7e-10 M
- EC50 [7]: 0.153 nM
- EC50 [8]: 0.229 nM
- EC50 [9]: 0.613 nM
- EC50 [10]: 0.123 nM
- Kd [11]: 2.62 nM
- koff [11]: 0.00244 s⁻¹
- EC50 [12]: 0.291 nM
- EC50 [13]: 0.305 nM
- EC50 [14]: 0.34 nM
- EC50 [15]: 0.328 nM
B3: single VH domain antibody 2.22 (VHH)
VHH: B2 VHH with T28S, M34T, R58K, D62A, S63P, K77N, S80Y, P100A
notes: Human single VH domain antibody (Humabody); C-terminal His tag, residues not tied
- His-ZAP cell killing, human PSMA Average EC50 [5]: 0.069 nM
- His-ZAP cell killing, cyno PSMA EC50 [6]: 0.18 nM

- EC50 [16]: 0.306 nM
- EC50 [17]: 0.086 nM
- EC50 [18]: 0.0902 nM
- EC50 [19]: 0.1 nM
- EC50 [20]: 0.107 nM
B6: 1.16-6GS-2.1 (bispecific antibody)
chain: EVQLLESGGGLVQPGGSLRLSCAASGFSFSSYALSWVRQAPGKGLEWVSSIGENNHTTDYADTVKGRFTISRDNSKNTLYLQMNSLRVEDTAVYYCVKDGVHWGQGTLVTVSSGGGGSGGGGSGGGGSGGGGSGGGGSGGGGSEVQLVESGGGVVQPGRSLRLSCAASGFSFSGYGMHWVRQAPGKGLEWVAYISYDGSNKYYADSVKGRFTISRDNSKNTLYLQMNSLRAEDTAVYYCAKDPAWGLRLGESSSYDFDIWGQGTMVTVSS
notes: linker (G4S)6
- His-ZAP cell killing, human PSMA Average EC50 [5]: 0.014 nM
- His-ZAP cell killing, cyno PSMA Average EC50 [6]: 0.013 nM

- EC50 [16]: 0.281 nM
- EC50 [17]: 0.0725 nM
- EC50 [18]: 0.0639 nM
- EC50 [19]: 0.0844 nM
- EC50 [20]: 0.101 nM
B8: 1.11-6GS-2.17 (bispecific antibody)
chain: B6 chain with H56D, T63N, G198A, S206N
notes: linker (G4S)6
- His-ZAP cell killing, human PSMA Average EC50 [5]: 0.0079 nM
- His-ZAP cell killing, cyno PSMA Average EC50 [6]: 0.0081 nM

The next lines start with the binder.

B1: single VH domain antibody 5.1 (VHH)
VHH: QVQLVESGGGVVQPGRSLRLSCAASGFTFNNYGMHWVRQAPGKGLEWVAIISYDGNTKYYTDSVKGRFTISRDNSKNTLYLQMNSLRVEDTAVYYCAKGLWPSDVWGQGTTVTVSS
notes: Human single VH domain antibody (Humabody); purified via the C-terminal His-tag, residues not tied
- EC50 (read off the curve): pHrodo Green internalisation signal FL2, CHO cells expressing cynomolgus PSMA [1]: ~2e-09 M
- Kd [2]: 30 nM
- koff [2]: 0.0091 s⁻¹

B4: single VH domain antibody 2.17 (VHH)
VHH: B2 VHH with T28S, G55A, R58K, S63N, K77N, S80Y
notes: as for B3
- pHrodo Green internalization assay, human PSMA Average EC50 (M) [4]: 8e-10 M
- His-ZAP cell killing, human PSMA Average EC50 [5]: 0.035 nM
- His-ZAP cell killing, cyno PSMA EC50 [6]: 0.07 nM
- EC50 [7]: 0.0113 nM
- EC50 [8]: 0.218 nM
- EC50 [9]: 0.308 nM
- EC50 [10]: 0.1 nM
- Kd [11]: 0.76 nM
- koff [11]: 0.000726 s⁻¹
- EC50 [12]: 0.21 nM
- EC50 [13]: 0.23 nM
- EC50 [14]: 0.228 nM
- EC50 [15]: 0.238 nM

B5: 1.11-6GS-2.1 (bispecific antibody)
chain: B6 chain with H56D, T63N
notes: linker (G4S)6; also called 1.11-2.1
- His-ZAP cell killing, human PSMA Average EC50 [5]: 0.017 nM
- His-ZAP cell killing, cyno PSMA Average EC50 [6]: 0.012 nM
- EC50 [16]: 0.287 nM
- EC50 [17]: 0.0605 nM
- EC50 [18]: 0.0892 nM
- EC50 [19]: 0.0736 nM
- EC50 [20]: 0.0865 nM

B7: 1.16-6GS-2.17 (bispecific antibody)
chain: B6 chain with G198A, S206N
notes: linker (G4S)6
- His-ZAP cell killing, human PSMA Average EC50 [5]: 0.015 nM
- His-ZAP cell killing, cyno PSMA Average EC50 [6]: 0.011 nM
- EC50 [16]: 0.333 nM
- EC50 [17]: 0.0944 nM
- EC50 [18]: 0.0741 nM
- EC50 [19]: 0.0628 nM
- EC50 [20]: 0.0675 nM

B9: single VH domain antibody 1.18 (VHH)
VHH: EVQLLESGGGLVQPGGSLRLSCAASGFSFSSYALSWVRQAPGKGLEWVSSIGENNATTDYAASVKGRFTISRDNSKNTLYLQMNSLRVEDTAVYYCVKDGVHWGQGTLVTVSS
notes: Human single VH domain antibody (Humabody)
- pHrodo Green internalization assay, human PSMA Average EC50 (M) [4]: 3.1e-10 M
- His-ZAP cell killing, human PSMA Average EC50 [5]: 0.023 nM
- His-ZAP cell killing, cyno PSMA EC50 [6]: 0.48 nM
- EC50 [7]: 0.0424 nM
- EC50 [8]: 0.0495 nM
- EC50 [9]: 0.124 nM
- EC50 [10]: 0.0586 nM
- Kd [21]: 0.59 nM
- koff [21]: 0.000572 s⁻¹
- EC50 [22]: 0.311 nM
- EC50 [23]: 0.304 nM
- EC50 [24]: 0.319 nM
- EC50 [25]: 0.313 nM

B10: single VH domain antibody 3.1 (VHH)
VHH: EVQLVESGGGVVQPGRSLRLSCAASGFPLISYGMHWVRQAPGKGLEWVAFMTYDGSNRYYADSVKGRFTISRDNSKNTLYLQMNSLRDEDTALYYCARDRIVGGRVPDAFDIWGQGTMVTVSS
notes: Human single VH domain antibody (Humabody); C-terminal His tag, residues not tied; also called VH3.1
- Kd [26]: 3.78 nM
- koff [26]: 0.000452 s⁻¹
- EC50 (read off the curve) [27]: ~2 nM
- EC50 (read off the curve) [3]: ~2 nM
- EC50 (read off the curve) [28]: ~2 nM
